Each structure is given as a SMILES string.

Data set [1] is described as follows: nanoSPECT/CT imaging biodistribution in blood of heart of HEK-293-FAP tumor-bearing mice. The note with it: BALB/c nude mice, nanoSPECT/CT semi-quantification.
Description: (§1) The HEK-293 human embryonic kidney cancer cells expressing FAP (HEK-293-FAP cells) are inoculated with 4×10^6 cells at the forward right flanks of BALB/c nude mice. […] These drugs are prepared to about 100 μL volume in normal saline. The nanoSPECT/CT imaging is performed at 1, 4, and 24 h after the intravenously administrated via tail vein.
(§2) The nanoSPECT/CT imaging is performed at 1, 4, and 24 h after administration to monitor the distribution of radiopharmaceuticals in the animal. The images are semi-quantification by using imaging analysis software. The SPECT count value of reference source is obtained by using imaging analysis software. […] The SPECT count value is obtained from region of image of each target organ, and obtained the activity/volume of each target organ by using the conversion formula.
The test system of data set [2] is HEK-293 human embryonic kidney cancer cells expressing FAP (HEK-293-FAP cells) tumor. Kind of data set: nanoSPECT/CT imaging biodistribution in tumor of HEK-293-FAP tumor-bearing mice. The following applies: BALB/c nude mice, nanoSPECT/CT semi-quantification.
Description: as §1, §2
The mark [3] stands for this setting: 1 h after intravenous administration via tail vein.
Setting [4] is: 4 h after intravenous administration via tail vein.
The mark [5] stands for this setting: 24 h after intravenous administration via tail vein.

In the case of `CN(CCCN1CCN(C(=O)[C@H](COCCNC(=O)CCCc2ccc(I)cc2)NC(=O)[C@H](CCCCSC2CC(=O)N(CCC(=O)N[C@@H](CCCCN)C(=O)N[C@@H](CCCCN)C(=O)N[C@@H](CCCCN)C(=O)N[C@@H](CCCCN)C(=O)N[C@@H](CCCCN)C(=O)N[C@@H](CCCCN)C(=O)N[C@@H](CCCCN)C(=O)N[C@@H](CCCCN)C(=O)O)C2=O)NC(=O)CNC(=O)CN2CCN(CC(=O)O)CCN(CC(=O)O)CCN(CC(=O)O)CC2)CC1)c1ccc2nccc(C(=O)NCC(=O)N3CC(F)(F)C[C@H]3C#N)c2c1` (stereo partly drawn) [Lu-177-INER-FAPI-1.12, metal not drawn], the figures for the “Blood of heart biodistribution value” in data set [1] (setting [3]), in data set [1] (setting [4]) and in data set [1] (setting [5]) were 16.19 % ID/mL, 13.33 % ID/mL and 5.50 % ID/mL, respectively. Besides, the Tumor biodistribution value in data set [2] (setting [3]) was 4.71 % ID/mL; in data set [2] (setting [4]), 5.08 % ID/mL; in data set [2] (setting [5]), 4.21 % ID/mL.

On to `CN(CCCN1CCN(C(=O)[C@H](COCCNC(=O)CCCc2ccc(I)cc2)NC(=O)[C@H](CCCCSC2CC(=O)N(CCC(=O)N[C@@H](CCCNC(=N)N)C(=O)N[C@@H](CCCNC(=N)N)C(=O)N[C@@H](CCCNC(=N)N)C(=O)N[C@@H](CCCNC(=N)N)C(=O)N[C@@H](CCCNC(=N)N)C(=O)N[C@@H](CCCNC(=N)N)C(=O)N[C@@H](CCCNC(=N)N)C(=O)N[C@@H](CCCNC(=N)N)C(=O)N[C@@H](CCCNC(=N)N)C(=O)N[C@@H](CCCNC(=N)N)C(=O)N[C@@H](CCCNC(=N)N)C(=O)N[C@@H](CCCNC(=N)N)C(=O)O)C2=O)NC(=O)CNC(=O)CN2CCN(CC(=O)O)CCN(CC(=O)O)CCN(CC(=O)O)CC2)CC1)c1ccc2nccc(C(=O)NCC(=O)N3CC(F)(F)C[C@H]3C#N)c2c1` (stereo partly drawn) [Lu-177-INER-FAPI-1.23, metal not drawn], for which the “Blood of heart biodistribution value” was 10.54 % ID/mL in data set [1] (setting [3]), 8.89 % ID/mL in data set [1] (setting [4]) and 3.49 % ID/mL in data set [1] (setting [5]). Further, the Tumor biodistribution value in data set [2] (setting [3]) is on record as 6.58 % ID/mL; in data set [2] (setting [4]) it was 5.96 % ID/mL; in data set [2] (setting [5]), 3.23 % ID/mL.

For the compound `CN(CCCN1CCN(C(=O)[C@H](COCCNC(=O)CCCc2ccc(I)cc2)NC(=O)[C@H](CCCCSC2CC(=O)N(CCC(=O)N[C@@H](CCCCN)C(=O)N[C@@H](CCCCN)C(=O)N[C@@H](CCCCN)C(=O)N[C@@H](CCCCN)C(=O)N[C@@H](CCCCN)C(=O)N[C@@H](CCCCN)C(=O)N[C@@H](CCCCN)C(=O)N[C@@H](CCCCN)C(=O)N[C@@H](CCCCN)C(=O)N[C@@H](CCCCN)C(=O)N[C@@H](CCCCN)C(=O)N[C@@H](CCCCN)C(=O)O)C2=O)NC(=O)CNC(=O)CN2CCN(CC(=O)O)CCN(CC(=O)O)CCN(CC(=O)O)CC2)CC1)c1ccc2nccc(C(=O)NCC(=O)N3CC(F)(F)C[C@H]3C#N)c2c1` (stereo partly drawn) [Lu-177-INER-FAPI-1.13, metal not drawn], the results for the “Blood of heart biodistribution value” in data set [1] (setting [3]), in data set [1] (setting [4]) and in data set [1] (setting [5]) were 15.70 % ID/mL, 12.33 % ID/mL and 5.44 % ID/mL, respectively. In addition, the Tumor biodistribution value is reported as 8.03 % ID/mL in data set [2] (setting [3]), 8.54 % ID/mL in data set [2] (setting [4]) and 5.44 % ID/mL in data set [2] (setting [5]).

Values taken from US20250135048A1, “Fibroblast activation protein compound or salt with albumin dual-binding function” (National Atomic Research Institute, priority 2023, published 2025).
